Measurements taken from PMC10775387 (Research Square, 2023).

Target: T1, EBOV GP1,2 stalk–MPER epitope peptide (aa 626–640) (Ebola virus (EBOV), UniProt Q05320)
T1 chain: IIHDFVDKTLPDQGD
Assay: crystal structure
Conditions: both partners purified

B1: 3A6 Fab (Fab, V domains shown)
VH: EVQLLESGGGLVKPGGSLRLSCAASGFTFNEYMMNWVRQPPGKGLEWVSSISGTSTYINYADSVKGRFTISRDNAKNSLYLQMNSLRSDDTAMYYCARGSTGGYWGQGTLITVSS
VL: DIVMTQTPLSSAVTLGQPASISCRSSQRLVHSDGNTYLSWLHQRPGQPPRLLIYKVSLRFSGVPDRFSGSGAGTDFTLKISRVEAEDVGIYYCMQATQFPLTFGGGTKVEIK
- binding result: binds
